The source of these data is patent publication US20220125891A1 (OSAKA UNIVERSITY, published 2022).

Positions of bridges follow the written chain, without caps; N, C: chain ends. Non-standard residues stand in square brackets, D forms with d. No end group written: not given here. NMeA = CN[C@@H](C)C(=O)O; dNMeA = CN[C@H](C)C(=O)O

The target of assay [1] is T1, full-length human Regnase-1 with a FLAG tag on the N-terminal side and a biotin ligase BirA recognition … (human, UniProt Q5D1E8 1-599, biotinylated where required ; Biotinylated at the BirA recognition sequence where required. That sequence is not in the letters.).
T1 sequence: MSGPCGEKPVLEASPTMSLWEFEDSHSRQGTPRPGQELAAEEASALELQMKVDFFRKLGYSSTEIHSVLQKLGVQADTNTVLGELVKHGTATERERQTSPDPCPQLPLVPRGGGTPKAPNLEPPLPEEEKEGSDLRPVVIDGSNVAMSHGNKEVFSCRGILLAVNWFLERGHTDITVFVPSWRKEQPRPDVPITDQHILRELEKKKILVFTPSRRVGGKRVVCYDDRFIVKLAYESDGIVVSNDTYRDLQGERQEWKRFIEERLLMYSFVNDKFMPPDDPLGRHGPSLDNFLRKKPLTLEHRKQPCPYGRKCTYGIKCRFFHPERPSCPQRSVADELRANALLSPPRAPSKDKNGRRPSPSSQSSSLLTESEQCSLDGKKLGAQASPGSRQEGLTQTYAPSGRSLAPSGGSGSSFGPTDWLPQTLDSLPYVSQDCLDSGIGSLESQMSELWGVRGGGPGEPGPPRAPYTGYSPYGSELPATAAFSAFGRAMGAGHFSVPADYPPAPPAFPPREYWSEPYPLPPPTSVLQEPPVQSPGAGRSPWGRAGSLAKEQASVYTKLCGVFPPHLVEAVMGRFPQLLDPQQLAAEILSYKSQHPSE
The assay is described as follows: cell-based or functional assay.

Assay [2] deals with T2, Reg1_301-599 (human Regnase-1 amino acids 301 to 599, FLAG tag on the N-terminal side, BirA recognition … (human)).
T2 sequence (Q5D1E8 301-599, looked up): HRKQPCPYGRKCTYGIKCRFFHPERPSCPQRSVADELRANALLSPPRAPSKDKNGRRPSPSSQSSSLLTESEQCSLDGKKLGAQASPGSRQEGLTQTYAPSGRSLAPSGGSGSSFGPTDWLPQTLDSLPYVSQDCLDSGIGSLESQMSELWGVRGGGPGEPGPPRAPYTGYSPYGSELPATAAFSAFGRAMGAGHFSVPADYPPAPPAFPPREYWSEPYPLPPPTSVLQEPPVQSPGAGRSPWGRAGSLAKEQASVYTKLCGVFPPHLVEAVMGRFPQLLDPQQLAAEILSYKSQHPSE
Put plainly: cell-based or functional assay.

The target of assay [3] is T3, ΔCTD_Reg1 (human Regnase-1 amino acids 1 to 546, FLAG tag on the N-terminal side, BirA recognition sequence … (human)). The assay is described as follows: cell-based or functional assay.
Assay [4] addresses T1, full-length human Regnase-1 with a FLAG …. The assay is described as follows: AlphaScreen, blocks TBK1 binding to FL_Reg1. (Bead proximity is the source of the signal in Alpha formats.)
Assay [5] shares this target. The assay is described as follows: cell-based or functional assay. The source holds these as a separate data set.
Assay [6] deals with T2, Reg1_301-599 (human Regnase-1 amino …). The assay is described as follows: cell-based or functional assay. The source holds these as a separate data set.
The target in assay [7] is T3, ΔCTD_Reg1 (human Regnase-1 amino acids …). The assay is described as follows: cell-based or functional assay. This is another data set of the same source.
In assay [8] the target is T1, full-length human Regnase-1 with a FLAG …. Put plainly: affinity selection-MS (SEC, LC/MS), 1 µM each.
The target is the same in assay [9]. The assay is described as follows: AlphaScreen, blocks IKKβ binding to FL_Reg1.

B1: PP14 (peptide)
peptide: [NMeA]RFGVWSWIYPD
modifications: lactam N-12
On to B1, for which the “IC50, phosphorylation by IKKβ” value stood at 1.6 µM in assay [1], 6.5 µM in [2] and 9 µM in [3]. In addition, the IC50 (as a rule, the concentration needed to halve the response being measured) in [4] turned out to be 7.1 µM; in [9], 20.1 µM. The “IC50, phosphorylation by TBK1” value in [5] is 3.1 µM; in assay [6] it was 6.8 µM; in assay [7], 5.2 µM. For the same molecule, the “AS-MS ratio(%)” value in [8] came to 4.2%.

B2: PP12 (peptide)
peptide: [NMeA]RYAVYQWIYPD
modifications: lactam N-12
B2: the “IC50, phosphorylation by IKKβ” value in [1] was 6.8 µM; in [2], 20.7 µM; in assay [3] it was 27 µM. Also, the IC50 in assay [4] and in assay [9] was more than 62.1 µM each time. The results for the “IC50, phosphorylation by TBK1” value in assay [5], in assay [6] and in assay [7] were 12.7 µM, 19.6 µM and 22.5 µM, respectively. Also, the “AS-MS ratio(%)” value in assay [8] was found to be 21%.

B3: PP11 (peptide)
peptide: [NMeA]KFAQFRWIYPD
modifications: lactam N-12
On to B3, for which the “IC50, phosphorylation by IKKβ” value in [1] is 22.3 µM; in assay [2], more than 62.1 µM; in assay [3], more than 62.1 µM. For the same molecule, the IC50 is 60.9 µM in assay [4] and more than 62.1 µM in assay [9]. The “IC50, phosphorylation by TBK1” value in assay [5] is 29.1 µM; in assay [6] it was more than 62.1 µM; in assay [7], 55.6 µM. Moreover, in assay [8], the “AS-MS ratio(%)” value was 5.1%.

B4: PP24 (peptide)
peptide: [NMeA]WIWDFWNED
modifications: lactam N-10
For the molecule B4, the “IC50, phosphorylation by IKKβ” value in assay [1] amounted to 5.3 µM; in assay [2], 7.2 µM; in assay [3], 4 µM. Moreover, the results for the IC50 in assay [4] and in assay [9] were 7.7 µM and 8.8 µM, respectively. Moreover, the results for the “IC50, phosphorylation by TBK1” value in assay [5], in assay [6] and in assay [7] were 35.7 µM, 34.8 µM and 27.3 µM, respectively. The “AS-MS ratio(%)” value in assay [8] stood at 51.1%.

B5: PP17 (peptide)
peptide: [NMeA]DIWFDYWDWD
modifications: lactam N-11
As to B5, the “IC50, phosphorylation by IKKβ” value in [1] was 0.5 µM; in assay [2], 0.7 µM; in [3], 0.3 µM. For the same molecule, the IC50 in assay [4] and in assay [9] was less than 0.06 µM throughout. In addition, the “IC50, phosphorylation by TBK1” value in assay [5] was less than 0.06 µM; in assay [6], less than 0.06 µM; in assay [7], 0.3 µM. The “AS-MS ratio(%)” value in [8] is 67.8%.

B6: PP8 (peptide)
peptide: [dNMeA]SKYWNSWYNIWD
modifications: lactam N-13
In the case of B6, the “IC50, phosphorylation by IKKβ” value in [1] was determined as 1.4 µM; in assay [2], 5.7 µM; in assay [3], 7.8 µM. Further, the values for the IC50 in assay [4] and in assay [9] were 6.5 µM and 7.4 µM, respectively. In addition, the “IC50, phosphorylation by TBK1” value was found to be 2.9 µM in assay [5], 6 µM in assay [6] and 5.5 µM in assay [7]. Besides, in [8], the “AS-MS ratio(%)” value is 6.2%.

B7: PP15 (peptide)
peptide: [NMeA]NSWYINIWGHD
modifications: lactam N-12
With B7, the “IC50, phosphorylation by IKKβ” value stood at 5.6 µM in assay [1], 22 µM in assay [2] and 31 µM in [3]. The results for the IC50 in assay [4] and in assay [9] were 13.7 µM and 33.7 µM, respectively. Also, the “IC50, phosphorylation by TBK1” value turned out to be 8.5 µM in assay [5], 17.4 µM in assay [6] and 9.5 µM in assay [7]. Besides, the “AS-MS ratio(%)” value in assay [8] was found to be 66.7%.

B8: PP13 (peptide)
peptide: [NMeA]RFRQWKWVYPD
modifications: lactam N-12
For B8, the “IC50, phosphorylation by IKKβ” value in assay [1] is 3.6 µM; in assay [2], 23.2 µM; in [3], 43.2 µM. Also, the IC50 in assay [4] came out at 13.8 µM; in assay [9], 16.9 µM. Also, the “IC50, phosphorylation by TBK1” value in [5] was determined as 8.4 µM; in [6], 18 µM; in assay [7], 17.7 µM. Moreover, the “AS-MS ratio(%)” value in assay [8] was found to be 0.1%.

B9: PP25 (peptide)
peptide: [dNMeA]EDTPEDDHD
modifications: lactam N-10
As to B9, the “IC50, phosphorylation by IKKβ” value in [1] stood at 27 µM; in assay [2], 27.6 µM; in assay [3] it was 47.7 µM. Also, the IC50 in assay [4] was 13.1 µM; in assay [9] it was more than 62.1 µM. Further, the “IC50, phosphorylation by TBK1” value in assay [5] worked out at 18.9 µM; in [6] it was 16.3 µM; in [7] it was 16.1 µM. Besides, the “AS-MS ratio(%)” value in assay [8] turned out to be 6.9%.

B10: PP9 (peptide)
peptide: [dNMeA]TYGHSSWYKIWD
modifications: lactam N-13
As for B10, the “IC50, phosphorylation by IKKβ” value in assay [1] was 2.7 µM; in [2] it was 6.2 µM; in assay [3], 6.4 µM. Also, the IC50 in assay [4] worked out at 8.3 µM; in assay [9], 10.6 µM. For the same molecule, the “IC50, phosphorylation by TBK1” value in [5] came out at 4.2 µM; in assay [6] it was 7.9 µM; in [7], 6.6 µM. Moreover, the “AS-MS ratio(%)” value in assay [8] came to 14.8%.

B11: PP7 (peptide)
peptide: [NMeA]NFNSAYYRAIWD
modifications: lactam N-13
As to B11, the entries for the “IC50, phosphorylation by IKKβ” value in [1], in assay [2] and in assay [3] were 0.8 µM, 3 µM and 4.5 µM, respectively. The figures for the IC50 in [4] and in assay [9] were 17.9 µM and 15.1 µM, respectively. In addition, the entries for the “IC50, phosphorylation by TBK1” value in [5], in assay [6] and in assay [7] were 2.2 µM, 4.6 µM and 4.7 µM, respectively. The “AS-MS ratio(%)” value in assay [8] was determined as 15.8%.

B12: PP10 (peptide)
peptide: [NMeA]NYQSWYYRSIWD
modifications: lactam N-13
For B12, the “IC50, phosphorylation by IKKβ” value was determined as 0.5 µM in [1], 1.8 µM in assay [2] and 2.6 µM in assay [3]. Further, the figures for the IC50 in assay [4] and in [9] were 9.8 µM and 11.4 µM, respectively. For the same molecule, the entries for the “IC50, phosphorylation by TBK1” value in assay [5], in assay [6] and in [7] were 0.2 µM, 0.4 µM and 0.2 µM, respectively. Besides, the “AS-MS ratio(%)” value in [8] was found to be 3.7%.

B13: PP16 (peptide)
peptide: [NMeA]NFSNSWYNIWD
modifications: lactam N-12
As to B13, the “IC50, phosphorylation by IKKβ” value in assay [1] stood at 20.6 µM; in assay [2], 42.2 µM; in assay [3], 30.8 µM. Moreover, the IC50 in [4] is 20.2 µM; in [9], more than 62.1 µM. Further, the “IC50, phosphorylation by TBK1” value is 52.4 µM in assay [5], more than 62.1 µM in [6] and 38.1 µM in assay [7]. The “AS-MS ratio(%)” value in assay [8] stood at 17.9%.
